Experimental data reported in the supplement of paper PMC7125110.
± gives the standard error. Fewer inactive variants are shown than the library holds.

B1: glmS ribozyme (parent)
chain: AUAAAAGCGCCAGAACUACAGAAAUGUAGUUGACGAGGAGGAGGUUUAUCGAAUUUUCGGCGGAUGCCUCCAAA

Variants of: B1
Test: self-cleavage kobs at 2500 uM GlcN6P; higher = faster cleavage; RNA array
Conditions: with glucosamine-6-phosphate
Method in brief: (§1)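 Over ~14 h at 37 °C, tiles were imaged as glucosamine-6-phosphate (40 μM to 10 mM) in HEPES/KCl/Mg(OAc)2 buffer flowed across sequenced MiSeq chips. The chips carried barcoded ribozyme variants transcribed in situ by E. coli RNA polymerase and tracked with a hybridised Cy3 probe. After normalisation to baseline and to non-cleaving reference variants, one- or two-exponential decay fits of per-tile medians gave kobs. kcat and KM followed from weighted Michaelis–Menten fits across concentrations.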

Variant | self-cleavage kobs at 2500 uM GlcN6P [s⁻¹]
C16G A52G U55G | 9.56e-05 ± 4.1e-05
G29A G41U C68U | < 1e-05
G29A U57G C70G | 0.000123 ± 5e-05
G29U U47G U54G | 0.000533 ± 0.00012
G13U A53C | 9.93e-05 ± 1.9e-05
G29U G32A A53C | 0.000152 ± 3e-05
G29U C34U U55G C67U | < 1e-05
C19A G32C | 4.68e-05 ± 1.6e-05
G29C U31A | 0.000502 ± 0.0001
C16G A39G C71U | 0.0054 ± 0.0016
U30G U31C U47C G66A | 2.71e-05 ± 1.2e-05
C16U U47A C58G | 2.28e-05 ± 1.1e-05
A14C A39G C58G | 5e-05 ± 1.9e-05
C16U G41A C67U | < 1e-05
A14G A15U U46C | 0.00169 ± 0.00048
G29C A33G A53U A64G U69G | 0.000129 ± 4.1e-05
A14U G51C A64G | < 1e-05
U31G G38U A42U C67U | < 1e-05
A14G U30A C50A | 8.06e-05 ± 2.8e-05
G13U A33G U45C G63A | < 1e-05
A15C G35U C70G | < 1e-05
A14C U31C A36G G38C G41U G51U | < 1e-05
A14C U30G A52G | 4.27e-05 ± 2.1e-05
G13U A36G G38C C50A | < 1e-05
G29U A36G A42G G43C G62U U65C U69C | < 1e-05
A15G U56G C58U | 3.75e-05 ± 1.4e-05
C16G A36U G60A | < 1e-05

Variant | self-cleavage kobs at 2500 uM GlcN6P [s⁻¹]
C16G U49G U55A | 5.61e-05 ± 2.1e-05
A15G U49G C50A G60C | < 1e-05
U31C G38A U47G G51C | < 1e-05
A15U U30C U31A | 0.0213 ± 0.0088
C16U A52G A53G C61U | < 1e-05
U31G U54A C68U | 0.000161 ± 5.7e-05
U30C U47A C70A | 8.14e-05 ± 3.8e-05
A15U C16G U30A A33G G59A | < 1e-05
A15C A39U C50G A53G | < 1e-05
A15G G44A U65A | 8e-05 ± 2e-05
G13U U47A C71G | 5.89e-05 ± 1.7e-05
A14U G40C G66C | 9.83e-05 ± 2.2e-05
G13C G41A G62C | < 1e-05
A14U G32U G44C G62U C71A | < 1e-05
G29U U55C G60C C68G | < 1e-05
A14U U30C G62C U69G | < 1e-05
U30G G35A G43C | < 1e-05
C16G U31A C34A | < 1e-05
G13C G44C A53U | < 1e-05
A15U A33C A39G C71G | < 1e-05
A14G G35U C67U | < 1e-05
A14G A42G G44A U55G | 0.000136 ± 4.1e-05
G13C U31A A53G | 0.000107 ± 3.6e-05
A14G U56G C71U | 0.0458 ± 0.019
U30A G40C A53G U56C | < 1e-05
G32A U47A C70G | 4.84e-05 ± 2.3e-05
G13C G32U G38U U47G A48U | < 1e-05

Variant | self-cleavage kobs at 2500 uM GlcN6P [s⁻¹]
C19A C34A | < 1e-05
A15G G44U U54C | 0.00016 ± 3.1e-05
A14C C34G G62U | < 1e-05
G29C A42U U47A | < 1e-05
U30A A33U C34A A36C G37C U57G | < 1e-05
A14C G29C A64G | 5.47e-05 ± 2e-05
A15U G51U U65A | < 1e-05
A15G G38U A52U | < 1e-05
A14U A33G G40U U56A | < 1e-05
A14C U54G C58G C68U | 4.09e-05 ± 1.3e-05
A14U G29U C67G | 6.46e-05 ± 2.8e-05
A14C U30G A42G A53C | 7.92e-05 ± 2.7e-05
U30G U31A G35A A39G G51C G59A | < 1e-05
U31C G35A C71U | < 1e-05
U31G C58A C67G | 6.38e-05 ± 2e-05
C16A A39G U69G | 0.000118 ± 3.8e-05
C16G G43U G62A | < 1e-05
G29U U47G C50G G63C | 0.000136 ± 5.4e-05
G29C C34A U47A U56C | < 1e-05
G29C G63C | < 1e-05
A14U A33G A52G C68U C70G C71A | 0.000285 ± 9.7e-05
U30A U47C | 0.000476 ± 9.7e-05
G13C G43C U57G | < 1e-05
C16G G43A A48U | < 1e-05
U30A U49C G66C | < 1e-05
G29U C50U C61U | < 1e-05

Variants of: B1
Test: self-cleavage kobs at 10000 uM GlcN6P; higher = faster cleavage; RNA array
Conditions: with glucosamine-6-phosphate
Method in brief: as §1

Variant | self-cleavage kobs at 10000 uM GlcN6P [s⁻¹]
G29U G32A A53C | 0.000364 ± 0.0001
G29C U31A | 0.000731 ± 0.00017
A14C A39G C58G | 8.88e-05 ± 1.6e-05
A14U G40C G66C | 0.00012 ± 2.4e-05
G13C U31A A53G | 0.000294 ± 5.7e-05
U30A A33U C34A A36C G37C U57G | < 1e-05
A14C U54G C58G C68U | 4.43e-05 ± 2e-05
U30A U47C | 0.000396 ± 9.1e-05
